Laboratory results reported in paper PMC6265488.

Tests used:
Test in all cases: co-sedimentation
[1] = target: 39S large mitoribosome subunit (mtLSU) (human (endogenous in HEK293T or 143B))
[2] = target: 55S monosome (human (endogenous in HEK293T or 143B))
[3] = target: 28S small mitoribosome subunit (mtSSU) (human (endogenous in HEK293T or 143B))

| percent of total GTPBP10 that co-sediments [1] | percent of total GTPBP10 that co-sediments [2] | percent of total GTPBP10 that co-sediments [3] | Substance |
| --- | --- | --- | --- |
| 10% | 1 to 2% | 10% | GTPBP10 (endogenous in 143B, isoform 2) (natural protein) |
| 10% | 1 to 2% | 10% | GTPBP10 (endogenous in HEK293T, isoform 1) (from UniProt A4D1E9-1 1-387) (natural protein) |
